According to article PMC4294675 (Molecular Biology of the Cell, 2015):

Experiments:
Test in all cases: other fluorescence titration
[1] = molecular target: fission yeast profilin SpPRF (S. pombe) (UniProt P39825)
[2] = molecular target: ScPFY(9-Mut) (Saccharomyces cerevisiae) (UniProt P07274)
[3] = molecular target: budding yeast profilin ScPFY (wild type) (Saccharomyces cerevisiae) (UniProt P07274)
Cdc12(FH1) = molecular target: T1, Cdc12(FH1) (fission yeast, UniProt Q10059 740-972)
T1 sequence: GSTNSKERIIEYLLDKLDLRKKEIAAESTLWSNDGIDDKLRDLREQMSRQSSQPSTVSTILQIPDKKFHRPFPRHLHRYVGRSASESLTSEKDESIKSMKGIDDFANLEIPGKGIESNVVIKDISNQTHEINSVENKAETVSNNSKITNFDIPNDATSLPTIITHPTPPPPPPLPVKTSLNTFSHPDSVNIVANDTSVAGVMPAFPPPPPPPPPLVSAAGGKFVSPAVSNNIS

Sequence of fission yeast profilin SpPRF (S. pombe) (P39825 whole entry): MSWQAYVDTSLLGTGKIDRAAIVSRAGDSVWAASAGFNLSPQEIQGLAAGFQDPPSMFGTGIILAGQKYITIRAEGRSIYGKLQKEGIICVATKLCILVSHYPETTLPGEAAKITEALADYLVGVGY

Molecule: poly-L-proline (peptide)
- Kd [1]: 59 µM
- Kd [2]: 195 µM
- Kd [3]: 224 µM

B1: Cdc12(FH1) (domain or fragment)
chain: GSTNSKERIIEYLLDKLDLRKKEIAAESTLWSNDGIDDKLRDLREQMSRQSSQPSTVSTILQIPDKKFHRPFPRHLHRYVGRSASESLTSEKDESIKSMKGIDDFANLEIPGKGIESNVVIKDISNQTHEINSVENKAETVSNNSKITNFDIPNDATSLPTIITHPTPPPPPPLPVKTSLNTFSHPDSVNIVANDTSVAGVMPAFPPPPPPPPPLVSAAGGKFVSPAVSNNIS
- Kd [2]: 22.7 µM

B2: budding yeast profilin ScPFY (wild type) (natural protein)
chain: MSWQAYTDNLIGTGKVDKAVIYSRAGDAVWATSGGLSLQPNEIGEIVQGFDNPAGLQSNGLHIQGQKFMLLRADDRSIYGRHDAEGVVCVRTKQTVIIAHYPPTVQAGEATKIVEQLADYLIGVQY
- Kd (Cdc12(FH1)): 24.7 µM
